US20200276330A1 (NANOMAB TECHNOLOGY, published 2020)
Changes are numbered by the printed parent chain.

B1: Nanobody No. 1 (VHH)
VHH: QVQLQESGGGSVQTGGSLRLSCAASTSIYSNNYMAWFSQAPGKGREGVAAVYIDDGRPYYADSVKGRFTISLDSAKNTVYLQMNRLKPEDTAMYYCAAAPGPLSHNYWYTSANYDYWGQGTQVTVSS
notes: Expressed in E. coli WK6 and purified on a nickel column; not shown: HA and His tags (implied by anti-HA detection and nickel column)
B2: Nanobody No. 3 (VHH)
VHH: B1 VHH with A23T, A40S, I53M, V79M, R85S, H105R
notes: as for B1
B3: Nanobody No. 2 (VHH)
VHH: QVQLQESGGGSVQAGGSLRLSCAASGYTYSSDGMGWFRQTPGKEREGVAAISPTGRRTEYADSVKGRFTISRDNNKNMLSLQMNSLKPEDTGMYYCAREGSWSFSLANSAVRSWGQGTQVTVSS
notes: as for B1

target: T1, PD-L1 (coated on the ELISA plate) (UniProt Q9NZQ7 19-238, limits assumed); experiment: ELISA with gradient dilution of nanobody on coated PD-L1
T1 construct: also called B7-H1; CD274
T1 sequence (Q9NZQ7 19-238 limits assumed): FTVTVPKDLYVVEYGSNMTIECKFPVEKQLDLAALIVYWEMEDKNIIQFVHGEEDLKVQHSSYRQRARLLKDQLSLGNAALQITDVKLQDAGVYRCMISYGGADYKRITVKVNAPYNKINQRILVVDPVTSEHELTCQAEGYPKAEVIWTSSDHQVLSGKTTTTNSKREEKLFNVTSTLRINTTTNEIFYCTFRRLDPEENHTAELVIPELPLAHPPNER
Experimental: (1) The PD-L1 was coated on the plate, and IgG and NaHCO₃ (100 mM, pH8.2) were used as blank controls. All were incubated overnight at 4° C.
(3) The purified nanobodies were diluted, and reacted with coated PD-L1, IgG and NaHCO₃ at room temperature for 1 hour.

Compared with B1, B2 is 1.8-fold lower in Kd: 7.96 nM for the first, 4.46 nM for the second.

With B3 the Kd was 1.62 nM.

target: T2, PD-L1 on HCC827 cells (high PD-L1 expression) and A549 cells (low PD-L1 expression) (UniProt Q9NZQ7 19-290, limits assumed); experiment: flow cytometry on A549 cells (low PD-L1 expression), anti-HA Alexa Fluor 488
T2 construct: whole, on cells; HCC827 and A549 are known human lung cancer lines
T2 sequence (Q9NZQ7 19-290 limits assumed): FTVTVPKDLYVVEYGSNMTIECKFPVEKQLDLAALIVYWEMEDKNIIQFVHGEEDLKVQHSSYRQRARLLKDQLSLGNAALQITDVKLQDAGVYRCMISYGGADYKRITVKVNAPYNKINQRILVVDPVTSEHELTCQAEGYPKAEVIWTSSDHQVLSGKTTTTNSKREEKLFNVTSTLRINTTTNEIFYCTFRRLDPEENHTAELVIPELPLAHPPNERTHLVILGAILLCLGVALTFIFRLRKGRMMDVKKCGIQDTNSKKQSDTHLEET

Going from B1 to B2, the “positive rate, A549” value rises from 11.5% to 13.5%.

In the case of B3, the “positive rate, A549” value is reported as 32.6%.

target: T2, PD-L1 on HCC827 cells (high PD-L1 …); experiment: flow cytometry on HCC827 cells (high PD-L1 expression), anti-HA Alexa Fluor 488

Going from B1 to B2, the “positive rate, HCC827” value falls from 88.1% to 66.5%.

With B3 the “positive rate, HCC827” value was 92.8%.

target: T3, human PD-L1 full-length protein on transiently transfected HEK293F cells (human, UniProt Q9NZQ7 19-290); experiment: flow cytometry competition: 10 ug nanobody + 5 ug hPD-1-Fc-Biotin on HEK293F cells expressing human PD-L1, SA-PE
T3 construct: whole, on cells
T3 sequence (Q9NZQ7 19-290): as the sequence (Q9NZQ7 19-290 limits assumed) above
Experimental: (1) 1×10⁶ HEK293F cells transiently transfected to express human PD-L1 full-length protein were collected and resuspended in 0.5% BSA-PBS buffer. And 10 μg of anti-PD-L1 nanobodies were added, and a positive control, a negative control and blank group (PBS) were set up. All samples were incubated with 5 μg of hPD-1-Fc-Biotin for 20 minutes at 4° C.
(2) The cells were washed twice by PBS and incubated with SA-PE from eBioscience for 20 minutes at 4° C. Cells were washed again with PBS twice and were detected by flow cytometry.

Going from B1 to B2, the “PD-1/PD-L1 Inhibitory effect” value falls from 19.3% to 19.2%.

For B3, the “PD-1/PD-L1 Inhibitory effect” value was 19.3%.
